System: MS2 coat protein
Test: apparent KD of MS2 coat protein; designed switch direction (-1 OFF switch, 1 ON switch): -1; higher = weaker reporter binding
Summary of the method: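 The reported apparent KD is a per-design median over clusters, from curve fits of normalised cluster fluorescence. Protein titrations used SNAP-549-labelled MS2 coat protein, doubled from 0.7 or 1.5 nM to 3 µM, in Tris-HCl pH 7.5 buffer with KCl, MgCl2, BSA, DTT, tRNA and Tween-20, with no input, 200 uM small-molecule ligand, or an oligonucleotide input. The RNA switches were transcribed on Illumina chips by stalled E. coli RNA polymerase.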

[1] = input ligand: microRNA oligo, concentration not stated
[2] = Eterna round: R95, input ligand: microRNA oligo, concentration not stated

Sequence	apparent KD of MS2 coat protein (input ligand: FMN 200 uM)	apparent KD of MS2 coat protein (input ligand: none)	apparent KD of MS2 coat protein [1]	apparent KD of MS2 coat protein [2]
AUCCUACAUGAGGAUCACCCAUGUCAGGAUAUCCAAGAAAUCUGGCCGUAUCGGCCAGGGAGAAGGGACAUGGC [jl-ex1-4.66 ViennaUCT mod] (Eterna round: R97, puzzle: Exclusion 1)	85.6 nM	28.4 nM		
AAUAAUGAGUAGGAUAUCACUAGCGAUAGCUAGUGAGAAGGGCUCACAUGAGGAUCACCCAUGUGUUCCAAUAA [Mod4 Ex6/6-A4 by Brourd] (Eterna round: R97, puzzle: Exclusion 6)	88.1 nM	31.2 nM		
UUGAUACAUACCUCCAUAAACAUGAGGAUCACCCAUGUAAGUGAGGAUAUAGAUUGAUUAGUAUACUAGAAGGCACUUAGAUAU [JR_ExcNG3_Sub044] (Eterna round: R96, puzzle: Exclusion NG 3)	11.6 nM	13.3 nM	8.91 nM	
GGCAUGUAAGGAUAUGUGAAGGGAAGGAGAGGGAGAGGGAAGCAGAAGGUACAUGAGGAUCACCCAUGUAAGGG [AK-MS2ROC-r4-exclusion4-5.1] (Eterna round: R97, puzzle: Exclusion 4)	203 nM	108 nM		
ACGUUGUCAGGAUAUCGUUAAUUUAGUUGUUUGUAUUAGUUCGAGAAGGGACAUGAGGAUCACCCAUGUUUGAA [Ex4 #34] (Eterna round: R97, puzzle: Exclusion 4)	36.2 nM	31.5 nM		
CAGCUGAAAGUCAGGAUAUCUAGAGCUUCGGCUCUAGAGAAGGGACAUGAGGAUCACCCAUGUGAUCACAGCUG [BmEx4/4-A1] (Eterna round: R97, puzzle: Brourd's mod of Exclusion 4)	152 nM	1900 nM		
UUAUAUAGUGUGAGGAUAUGCUGGUCCUUGGAUCAGCAGAAGGCACAUGAGGAUCACCCAUGUAGUUUAUUAUU [Mat - Exclusion 4 - JL Mod - D10] (puzzle: Brourd's mod of Exclusion 4)				24.8 nM
AACUUGUAAGGAUAUACAUGAGGAUCACCCAUGUGUCCCACGAACCGACAGGUCGUCUGUAGAAGGUGCAACAU [Eternabot (L1) Solution 88] (Eterna round: R97, puzzle: Exclusion 3)	29 nM	27.4 nM		
GGUUUCGUAGGAUAUCAUCGAGUAAACAUGAGGAUCACCCAUGUGAGGUCGGCUUGCUCUUGAGAAGGAUGAAUGG [EX5 B.13] (Eterna round: R97, puzzle: Exclusion 5)	40.1 nM	34 nM		
CUCUCGUGAGGAUAUCUCCGCGAGAAUAAUGUUACACGCGAAGAGAAGGCACAUGAGGAUCACCCAUGUUAAAC [Eternabot (L1) Solution 31] (Eterna round: R97, puzzle: Exclusion 4)	230 nM	54.8 nM		
CAUGAUUGGCGAGGAUAUUGAUCUAGUUGGCGACGAGAAGGCGCCUGUCACAUGAGGAUCACCCAUGUGAAUCUGGUGGAUGAG [Ex NG1 #88] (Eterna round: R96, puzzle: Exclusion NG 1)	23 nM	23.5 nM	18.4 nM	
AUAUUGUGAGGAUAUGAACUUAGUAUCGAAAGAUACUAAGUACAGAAGGCACAUGAGGAUCACCCAUGUUUCUC [Long static hairpin v2] (Eterna round: R97, puzzle: Exclusion 4)	418 nM	85.7 nM		
GCCUGUGAAGGAUAUACAUGAGGAUCACCCAUGUGGCGGGCAUACCCGCCGAGACCGUGUAGAAGGUCAUAGUA [Telamais] (puzzle: Exclusion 3)				49.9 nM
GGAUAAAACUGAGGAUAUGCGUAUCGCUAGCGAGCAGAAGGCAGACAUGAGGAUCACCCAUGUGAGUUCUCGAUAAGAAACACG [Prohibition 59 - Jieux - Exclusion NG 1] (Eterna round: R96, puzzle: Exclusion NG 1)	145 nM	57.7 nM	54.8 nM	

Reference: the supplement of paper PMC9170038
